Test results reported in patent US20150283263A1.

Biological target: CD25 (human) (UniProt P01589)
Assay: flow cytometry on Karpas299 cells (surface CD25); negative control antibody

Chain of CD25 (human) (P01589 22-272): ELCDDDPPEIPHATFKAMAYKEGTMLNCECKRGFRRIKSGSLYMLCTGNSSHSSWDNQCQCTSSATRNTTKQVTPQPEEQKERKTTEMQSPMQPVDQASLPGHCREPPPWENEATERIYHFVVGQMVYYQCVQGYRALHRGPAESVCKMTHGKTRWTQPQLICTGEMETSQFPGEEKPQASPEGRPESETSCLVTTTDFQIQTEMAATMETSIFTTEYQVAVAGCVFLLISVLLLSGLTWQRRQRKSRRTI

EC50: 537 µg/mL
Substance: B12 anti-HIV gp120 antibody
